Patent US20210155689A1 (SHANGHAI PHARMAEXPLORER, published 2021)

T1: human LAG-3 (full length, on the cell surface) (human, UniProt P18627 23-525)
T1 sequence: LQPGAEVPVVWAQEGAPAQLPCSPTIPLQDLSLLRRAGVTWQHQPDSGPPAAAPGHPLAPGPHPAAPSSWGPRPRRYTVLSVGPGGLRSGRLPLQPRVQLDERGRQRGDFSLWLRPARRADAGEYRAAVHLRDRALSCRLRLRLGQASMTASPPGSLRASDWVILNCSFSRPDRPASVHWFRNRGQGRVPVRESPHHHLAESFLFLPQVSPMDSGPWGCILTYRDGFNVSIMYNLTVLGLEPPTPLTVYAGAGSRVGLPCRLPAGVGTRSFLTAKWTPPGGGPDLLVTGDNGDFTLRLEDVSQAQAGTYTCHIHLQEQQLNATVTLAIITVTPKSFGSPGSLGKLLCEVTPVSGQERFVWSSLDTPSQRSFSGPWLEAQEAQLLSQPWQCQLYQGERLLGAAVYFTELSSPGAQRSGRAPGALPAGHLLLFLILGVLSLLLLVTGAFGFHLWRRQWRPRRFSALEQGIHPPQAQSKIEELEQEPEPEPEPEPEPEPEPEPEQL

T2: human LAG-3 protein with hFc tag (hLAG-3-hFc protein) (human, UniProt P18627 23-450)
T2 construct: also called immunogen 1; LAG-3 extracellular domain protein; not shown: human IgG Fc fragment (hFc) of the pCpC vector
T2 sequence: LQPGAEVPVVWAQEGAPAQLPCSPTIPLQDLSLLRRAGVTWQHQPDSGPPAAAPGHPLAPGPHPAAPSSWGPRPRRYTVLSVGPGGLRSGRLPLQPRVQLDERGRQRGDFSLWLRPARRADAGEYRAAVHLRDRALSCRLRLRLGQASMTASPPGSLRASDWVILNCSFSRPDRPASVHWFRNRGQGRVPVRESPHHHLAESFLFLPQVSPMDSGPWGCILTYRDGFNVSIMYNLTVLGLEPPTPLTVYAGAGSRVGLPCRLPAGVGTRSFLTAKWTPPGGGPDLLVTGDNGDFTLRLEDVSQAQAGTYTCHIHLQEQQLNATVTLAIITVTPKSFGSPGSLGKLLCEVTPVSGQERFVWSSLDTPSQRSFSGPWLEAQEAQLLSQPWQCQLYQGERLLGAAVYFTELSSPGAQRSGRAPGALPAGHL

T3: mouse LAG-3 protein with hFc tag (mLAG-3-hFc protein) (mouse; human, UniProt Q61790 24-442)
T3 construct: Made in HEK293 cells; also called mouse LAG-3 extracellular domain protein; not shown: human IgG Fc fragment (hFc) of the pCpC vector
T3 sequence: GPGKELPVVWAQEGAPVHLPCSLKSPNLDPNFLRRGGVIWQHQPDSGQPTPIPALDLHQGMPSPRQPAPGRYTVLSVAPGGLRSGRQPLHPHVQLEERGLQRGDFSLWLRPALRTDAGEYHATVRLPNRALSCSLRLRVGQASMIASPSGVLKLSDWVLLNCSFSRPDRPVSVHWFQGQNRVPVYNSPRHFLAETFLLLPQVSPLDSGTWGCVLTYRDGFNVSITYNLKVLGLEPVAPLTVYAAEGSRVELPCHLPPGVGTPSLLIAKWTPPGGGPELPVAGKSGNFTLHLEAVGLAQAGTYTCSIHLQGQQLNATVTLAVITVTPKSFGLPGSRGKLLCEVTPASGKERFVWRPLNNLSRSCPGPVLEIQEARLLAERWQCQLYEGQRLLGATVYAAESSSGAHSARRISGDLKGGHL


Legend:
[1] = target: T1, human LAG-3 (full length, on the cell …); experiment: cell-based or functional assay
[2] = target: T2, human LAG-3 protein with hFc tag …; experiment: ELISA, hLAG-3-hFc coated; 0.6667 nM
Protocol: (§1) The plate was sealed with plastic film and incubated overnight at 4° C. The plate was washed 2 times with the plate washing solution (PBS+0.01% Tween20) on the next day, and added with the blocking solution (PBS+0.01% Tween20+1% BSA) and blocked at room temperature for 1-2 hours. The blocking solution was poured out, and the plate was added with 50-100 μl of the antibody sample to be tested to each well, incubated at 37° C. for 1-2 hours, and washed 2-3 times with a plate washing solution (PBS+0.01% Tween20). HRP (horseradish peroxidase) labeled secondary antibody was added, and the plate was incubated at 37° C. for 1-2 hours, and washed 2-3 times with a plate washing solution (PBS+0.01% Tween20). 100 μl of TMB substrate was added to each well. After incubated at room temperature for 15-30 minutes, the plate was added with 100 μl of stop solution (1.0N HCl) to each well.

[3] = target: T3, mouse LAG-3 protein with hFc tag …; experiment: ELISA, mLAG-3-hFc coated; 0.0067 nM
Protocol: as §1

[4] = target: T2, human LAG-3 protein with hFc tag …; experiment: ELISA, hLAG-3-hFc coated; 0.0667 nM
Protocol: as §1

[5] = target: T3, mouse LAG-3 protein with hFc tag …; experiment: ELISA, mLAG-3-hFc coated; 0.0007 nM
Protocol: as §1

Binder	mIL-2 (pg/mL), antigen-specific T lymphocyte stimulation test; antibody 0.016 ug/mL [1] [pg/mL]	mIL-2 (pg/mL), antigen-specific T lymphocyte stimulation test; antibody 0.08 ug/mL [1] [pg/mL]	mIL-2 (pg/mL), antigen-specific T lymphocyte stimulation test; antibody 2 ug/mL [1] [pg/mL]	mIL-2 (pg/mL), antigen-specific T lymphocyte stimulation test; antibody 4 ug/mL (so in the source) [1] [pg/mL]	mIL-2 (pg/mL), antigen-specific T lymphocyte stimulation test; antibody 10 ug/mL [1] [pg/mL]	OD450 [2] [OD450]	OD450 [3] [OD450]	OD450 [4] [OD450]	OD450 [5] [OD450]
405B8H3 (mouse antibody purified from hybridoma) (antibody, V domains shown, also called mAb103-405B8H3; 405B81-13) VH: QVQLQQSGAELVRPGASVTLSCKASGYTFTDYEMHWVKQTPVHGLEWIGATDPETGNSAYNQKFKGKAIMTADKSSSTAYMELRSLTSEDSAVYYCISTGWNDWGQGTSLTVSS VL: DIKMTQSPSSMYASLGERVTITCKASQDINSYLSWFQQKPGKSPKTLIYRADRLLDGVPSRFSGSGSGQDYSLTISSLEYGDMGIYYCLQYDEFPYTFGGGTKLEIK	205	204	435	392	441	–	–	–	–
405B8H3 (LAG-3 mouse-human chimeric antibody) (antibody, V domains shown, also called mouse-human chimeric antibody 405B8H3) VH: QVQLQQSGAELVRPGASVTLSCKASGYTFTDYEMHWVKQTPVHGLEWIGATDPETGNSAYNQKFKGKAIMTADKSSSTAYMELRSLTSEDSAVYYCISTGWNDWGQGTSLTVSS VL: DIKMTQSPSSMYASLGERVTITCKASQDINSYLSWFQQKPGKSPKTLIYRADRLLDGVPSRFSGSGSGQDYSLTISSLEYGDMGIYYCLQYDEFPYTFGGGTKLEIK	–	–	–	–	–	3.51	0.08	2.25	0.08
105F1E10 (LAG-3 mouse-human chimeric antibody) (antibody, V domains shown) VH: EVQLQQSGPELVKPGASVKMSCRASGYTFTDFKMHWMKQSHGKSLEWIGYIAPNNGGTAYNQKFRGKATLTVNESSNTAYMELRSLTSEDSAVYYCVDWDDVDYWGQGTTLTVSS VL: DIKMTQSPSSMYASLGERVTITCKASQDINSYLSWFQQKSGKSPKTLIYRANRLVDGVPSRFSGSGSGQDYSLTISSLEYEDMGIYYCLQYVEFPLTFGAGTKLELK	–	–	–	–	–	3.46	0.09	1.29	0.08
409B11E12 (LAG-3 mouse-human chimeric antibody) (antibody, V domains shown) VH: QVQLQQSGAELVRPGASVTLSCKASGYTFTDYEMHWVKQTTVHGLEWIGATDPETSYSAYNQKFKGKAILTADKSSSTAYMELRSLTSEDSAVYYCIATGWNDWGQGTSLTVSS VL: DLKMTQSPSSMYASLGERVTITCKASQDINSYLSWFQQKPGKSPKTLIYRANRLLDGVPSRFSGSGSGQDYSLTISSLEYEDMGIYYCLQYDEFPYTFGGGTKLEIK	–	–	–	–	–	3.55	0.07	2.16	0.08
409D4E10 (mouse antibody purified from hybridoma) (antibody, V domains shown, also called mAb112-409D4E10) VH: QVQLQQSGAELVRPGASVTLSCKASGNTFTDYEMHWVKQTPVHGLEWIGATDPETDNTAYNQKFKGKAILTTDKSSSTAYMELRSLTSEDSAVYYCITSGWNDWGQGTSLTVSS VL: DIKMTQSPSSMYASLGERVTITCKASQDINSYLSWFQQKPGKSPKTLIYRANRLLDGVPSRFSGSGSGQDYSLTISSLEYEDMGIYYCLQYNEFPYTFGGGTKLEIK	172	175	346	261	335	–	–	–	–
409B11E12 (mouse antibody purified from hybridoma) (antibody, V domains shown, also called mAb104-409B11E12) VH: QVQLQQSGAELVRPGASVTLSCKASGYTFTDYEMHWVKQTTVHGLEWIGATDPETSYSAYNQKFKGKAILTADKSSSTAYMELRSLTSEDSAVYYCIATGWNDWGQGTSLTVSS VL: DLKMTQSPSSMYASLGERVTITCKASQDINSYLSWFQQKPGKSPKTLIYRANRLLDGVPSRFSGSGSGQDYSLTISSLEYEDMGIYYCLQYDEFPYTFGGGTKLEIK	187	183	376	374	364	–	–	–	–
409D4E10 (LAG-3 mouse-human chimeric antibody) (antibody, V domains shown) VH: QVQLQQSGAELVRPGASVTLSCKASGNTFTDYEMHWVKQTPVHGLEWIGATDPETDNTAYNQKFKGKAILTTDKSSSTAYMELRSLTSEDSAVYYCITSGWNDWGQGTSLTVSS VL: DIKMTQSPSSMYASLGERVTITCKASQDINSYLSWFQQKPGKSPKTLIYRANRLLDGVPSRFSGSGSGQDYSLTISSLEYEDMGIYYCLQYNEFPYTFGGGTKLEIK	–	–	–	–	–	3.76	0.09	3.1	0.13
556F6B8 (mouse antibody purified from hybridoma) (antibody, V domains shown, also called mAb123-556F6B8) VH: RVQLKQSGPGLVQPSQSLSITCTVSGFSLIKYGVHWVRQSPGEGLEWLGVIWRGGITDYNAAFMSRLSITKDNSKSQVFFKMNSLQADDTAIYYCAKWDGPLAMDYWGQGTSVTVSS VL: DIVMTQSHKFLSTSVGDRVSITCKASQDVGTTVAWYQQKPGQSPKLLIYWASTRHTGVPDRFTGSGSGTDFTLTISNVQSEDLADYFCQQYSSYPYTFGGGTKLEIK	88.3	141	270	214	255	–	–	–	–
556F6B8 (LAG-3 mouse-human chimeric antibody) (antibody, V domains shown, also called 556F8B8) VH: RVQLKQSGPGLVQPSQSLSITCTVSGFSLIKYGVHWVRQSPGEGLEWLGVIWRGGITDYNAAFMSRLSITKDNSKSQVFFKMNSLQADDTAIYYCAKWDGPLAMDYWGQGTSVTVSS VL: DIVMTQSHKFLSTSVGDRVSITCKASQDVGTTVAWYQQKPGQSPKLLIYWASTRHTGVPDRFTGSGSGTDFTLTISNVQSEDLADYFCQQYSSYPYTFGGGTKLEIK	–	–	–	–	–	3.76	0.14	1.94	0.08
